Target: HPV 16 E786-93 epitope […] (X aminobutyric acid) presented by HLA-A2.1 (human papilloma virus (HPV) 16; human)

For “freshly isolated HLA-A2 positive CD8+ (CTLs) and CD4+ (HTLs) T cells (cells without a defined receptor)”, the IFN γ Elispot, frequency of spots (250,000 cells per well) was 0.02%.
